Results from patent publication US20230312724A1 (KADMON, published 2023).

T1: human B7-H4-his (human, UniProt Q7Z7D3 25-259)
T1 construct: also called hB7-H4-his; hB7-H4 his; not shown: his tag
T1 sequence: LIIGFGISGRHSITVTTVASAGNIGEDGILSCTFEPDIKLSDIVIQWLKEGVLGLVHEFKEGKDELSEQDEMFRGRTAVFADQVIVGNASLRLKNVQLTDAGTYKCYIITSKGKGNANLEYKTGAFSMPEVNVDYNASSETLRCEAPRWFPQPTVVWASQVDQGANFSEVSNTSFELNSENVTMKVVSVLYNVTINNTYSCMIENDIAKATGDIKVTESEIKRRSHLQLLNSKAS

T2: mouse B7-H4-his (mouse, UniProt Q7TSP5 25-257)
T2 construct: also called mB7-H4-his; mB7-H4-His; not shown: his tag
T2 sequence: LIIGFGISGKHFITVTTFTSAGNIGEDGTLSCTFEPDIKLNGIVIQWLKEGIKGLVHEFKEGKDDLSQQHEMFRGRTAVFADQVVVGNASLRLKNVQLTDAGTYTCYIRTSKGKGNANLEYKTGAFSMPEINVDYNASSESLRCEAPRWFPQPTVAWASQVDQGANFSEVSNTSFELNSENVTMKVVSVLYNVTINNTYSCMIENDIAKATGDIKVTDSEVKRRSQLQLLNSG

T3: mB7-H4 (soluble mouse B7-H4, construct not named) (mouse, UniProt Q7TSP5 25-257, limits assumed)
T3 sequence: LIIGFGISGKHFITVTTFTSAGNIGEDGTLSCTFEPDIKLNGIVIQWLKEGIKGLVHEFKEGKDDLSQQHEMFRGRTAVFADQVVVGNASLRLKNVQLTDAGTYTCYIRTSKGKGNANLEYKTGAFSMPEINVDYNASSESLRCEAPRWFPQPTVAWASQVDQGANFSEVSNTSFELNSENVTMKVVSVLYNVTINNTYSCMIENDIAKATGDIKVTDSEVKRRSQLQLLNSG

T4: mouse B7-H4 expressed on cells (mouse, UniProt Q7TSP5 25-257)
T4 construct: also called cellular mB7-H4; mB7-H4/CT26
T4 sequence: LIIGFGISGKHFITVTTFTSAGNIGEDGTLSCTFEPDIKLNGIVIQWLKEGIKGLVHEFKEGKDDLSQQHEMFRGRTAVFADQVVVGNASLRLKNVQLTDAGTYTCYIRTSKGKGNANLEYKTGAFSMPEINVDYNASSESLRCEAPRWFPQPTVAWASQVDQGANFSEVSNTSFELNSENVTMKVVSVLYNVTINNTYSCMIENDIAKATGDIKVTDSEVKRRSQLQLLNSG

T5: hB7-H4 (soluble human B7-H4, construct not named) (human, UniProt Q7Z7D3 25-259, limits assumed)
T5 construct: also called soluble hB7-H4
T5 sequence: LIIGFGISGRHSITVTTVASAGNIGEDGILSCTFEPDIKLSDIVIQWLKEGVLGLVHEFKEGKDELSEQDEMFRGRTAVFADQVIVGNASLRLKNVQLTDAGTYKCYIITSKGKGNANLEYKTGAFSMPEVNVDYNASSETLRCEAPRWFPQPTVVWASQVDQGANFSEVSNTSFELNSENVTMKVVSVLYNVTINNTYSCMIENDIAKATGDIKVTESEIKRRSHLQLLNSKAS

T6: human B7-H4 expressed on cells (human, UniProt Q7Z7D3 25-282)
T6 construct: Transfected CHO cells or tumor cell lines that carry hB7-H4; also called cellular hB7-H4
T6 sequence: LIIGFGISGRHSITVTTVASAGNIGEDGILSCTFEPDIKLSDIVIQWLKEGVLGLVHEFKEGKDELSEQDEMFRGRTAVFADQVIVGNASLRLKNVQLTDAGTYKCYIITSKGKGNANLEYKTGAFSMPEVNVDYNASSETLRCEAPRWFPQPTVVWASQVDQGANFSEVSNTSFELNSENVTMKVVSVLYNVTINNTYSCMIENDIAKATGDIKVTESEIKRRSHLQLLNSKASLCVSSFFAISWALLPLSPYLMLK


Key:
[1] = target: T7, human B7-H4-Fc (human); assay: SPR (Biacore)
T7 construct: also called hB7-H4-Fc; hB7-H4 Fc

[2] = target: T1, human B7-H4-his; assay: SPR (Biacore)
[3] = target: T2, mouse B7-H4-his; assay: SPR (Biacore)
[4] = target: T7, human B7-H4-Fc; assay: ELISA, coated hB7-H4-Fc
Experimental: (§1) About 1-2 μg/ml of human or mouse B7-H4-Fc (or his-tagged) was immobilized on ELISA plates (Immuno 2HB, Thermo scientific, cat #3455) at 4° C. overnight. After blocking the plates with 3% PBS+milk, serial diluted antibodies were added to the blocked plates and incubated at RT for 1-1.5 h. After washing the plates with PBS-T (0.05%), horse radish peroxidase (HRP)-conjugated antibody targeting the hFab was added to the plate. Signals were developed by adding 3,3′,5,5′-Tetramethylbenzidine (TMB (followed 1N of H₂SO₄ to stop the reaction. The OD at 450 nm was read by ELISA plate reader (Infinite M1000 from TECAN). GraphPad from Prism was used to plot OD450 vs. antibody concentration curve and to calculate the EC50 values.

[5] = target: T8, mouse B7-H4-Fc (mouse; human); assay: ELISA, coated mB7-H4-Fc
T8 construct: also called mB7-H4-Fc; mB7-H4-hFc
How it was run: (§2)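 Human or mouse B7-H4-Fc (or His-tagged) at about 1-2 μg/ml was coated overnight at 4° C and blocked with 3% milk. Serially diluted antibodies were added for 1-1.5 h at RT and detected with HRP anti-human Fab and TMB, reading OD450. EC50 was obtained from the OD450 vs. concentration curve.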

[6] = target: T3, mB7-H4 (soluble mouse B7-H4, construct …); assay: summary of ELISA and flow cytometry
[7] = target: T9, IgV domain of human B7-H4-Fc (human); assay: ELISA, coated hB7-H4 IgV domain
T9 construct: also called hB7-H4 IgV domain
Experimental: as §1

[8] = target: T10, IgV domain of mouse B7-H4-Fc (mouse; human); assay: ELISA, coated mB7-H4 IgV domain
T10 construct: also called mB7-H4 IgV domain
How it was run: as §2

[9] = target: T4, mouse B7-H4 expressed on cells; assay: flow cytometry, CHO cells expressing mB7-H4
[10] = target: T8, mouse B7-H4-Fc; assay: SPR (Biacore)
[11] = target: T5, hB7-H4 (soluble human B7-H4, construct …); assay: ELISA, hB7-H4
How it was run: as §2

[12] = target: T5, hB7-H4 (soluble human B7-H4, construct …); assay: SPR (Biacore)
How it was run: (§3)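 Ligands (human B7-H4-Fc, human B7-H4-his, mouse B7-H4-Fc) were amine-coupled to CM5 chips at 50-100 RU. Analyte was injected at 100 nM to 0.1 nM in HBS-EP, pH 7.4, at 25 °C, with 180 s association and 1000 or 1200 s dissociation. Kinetics were fitted to a 1:1 Langmuir model.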

[13] = target: T3, mB7-H4 (soluble mouse B7-H4, construct …); assay: SPR (Biacore)
How it was run: as §3

[14] = target: T3, mB7-H4 (soluble mouse B7-H4, construct …); assay: ELISA, mB7-H4
How it was run: as §2

[15] = target: T6, human B7-H4 expressed on cells; assay: flow cytometry, SK-BR-3 cells
How it was run: (§4)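 Binding titrations: test proteins in serial dilution incubated on cells for 1 h at 4 °C in ice-cold FACS buffer. Detection with secondary antibody diluted 1:200.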

[16] = target: T4, mouse B7-H4 expressed on cells; assay: flow cytometry, mB7-H4/CT26 cells
How it was run: as §4

[17] = target: T11, IgC domain of human B7-H4-Fc (human); assay: ELISA, coated hB7-H4 IgC domain
T11 construct: also called hB7-H4 IgC domain
Experimental: as §1

[18] = target: T12, IgC domain of mouse B7-H4-Fc (mouse; human); assay: ELISA, coated mB7-H4 IgC domain
T12 construct: also called mB7-H4 IgC domain
Experimental: as §1

[19] = target: T9, IgV domain of human B7-H4-Fc; assay: ELISA, coated hB7-H4 IgV domain; remark: listed apart in the source
[20] = target: T10, IgV domain of mouse B7-H4-Fc; assay: ELISA, coated mB7-H4 IgV domain; remark: listed apart in the source

T7 sequence (chain, as listed by the source): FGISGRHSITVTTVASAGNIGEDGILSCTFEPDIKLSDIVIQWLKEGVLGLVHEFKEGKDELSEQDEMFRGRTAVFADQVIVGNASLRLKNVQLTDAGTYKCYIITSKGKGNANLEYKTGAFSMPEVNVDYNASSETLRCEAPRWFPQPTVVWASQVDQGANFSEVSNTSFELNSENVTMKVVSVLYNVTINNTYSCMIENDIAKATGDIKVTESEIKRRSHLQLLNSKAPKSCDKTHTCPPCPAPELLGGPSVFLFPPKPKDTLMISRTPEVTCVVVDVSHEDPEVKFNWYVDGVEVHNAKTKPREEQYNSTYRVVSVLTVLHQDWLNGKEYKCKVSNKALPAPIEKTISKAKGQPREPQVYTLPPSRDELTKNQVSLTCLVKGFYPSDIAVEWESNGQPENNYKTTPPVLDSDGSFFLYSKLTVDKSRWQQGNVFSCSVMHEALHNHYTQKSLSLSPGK
T8 sequence (chain, as listed by the source): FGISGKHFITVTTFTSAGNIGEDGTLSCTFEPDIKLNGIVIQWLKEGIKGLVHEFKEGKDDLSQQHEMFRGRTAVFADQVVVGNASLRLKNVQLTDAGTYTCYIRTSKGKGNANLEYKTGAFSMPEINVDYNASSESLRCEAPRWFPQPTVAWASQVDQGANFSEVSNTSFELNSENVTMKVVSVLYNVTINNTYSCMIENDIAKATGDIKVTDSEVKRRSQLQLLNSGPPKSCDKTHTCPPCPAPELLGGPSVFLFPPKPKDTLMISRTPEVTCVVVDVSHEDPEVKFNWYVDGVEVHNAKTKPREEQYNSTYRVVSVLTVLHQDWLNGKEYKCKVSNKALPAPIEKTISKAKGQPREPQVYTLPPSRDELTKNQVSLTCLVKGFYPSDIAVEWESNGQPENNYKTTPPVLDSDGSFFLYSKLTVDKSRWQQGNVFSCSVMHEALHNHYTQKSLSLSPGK
T9 sequence (chain, as listed by the source): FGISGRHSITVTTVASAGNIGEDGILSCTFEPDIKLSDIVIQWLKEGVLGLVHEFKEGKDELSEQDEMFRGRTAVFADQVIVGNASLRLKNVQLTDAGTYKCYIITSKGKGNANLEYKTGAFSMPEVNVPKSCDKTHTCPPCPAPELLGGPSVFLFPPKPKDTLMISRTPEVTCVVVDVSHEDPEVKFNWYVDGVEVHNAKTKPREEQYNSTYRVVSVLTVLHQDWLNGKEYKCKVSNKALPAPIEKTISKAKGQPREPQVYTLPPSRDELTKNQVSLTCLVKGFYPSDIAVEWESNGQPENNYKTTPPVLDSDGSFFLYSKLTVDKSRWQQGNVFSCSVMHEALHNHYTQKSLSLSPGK
T10 sequence (chain, as listed by the source): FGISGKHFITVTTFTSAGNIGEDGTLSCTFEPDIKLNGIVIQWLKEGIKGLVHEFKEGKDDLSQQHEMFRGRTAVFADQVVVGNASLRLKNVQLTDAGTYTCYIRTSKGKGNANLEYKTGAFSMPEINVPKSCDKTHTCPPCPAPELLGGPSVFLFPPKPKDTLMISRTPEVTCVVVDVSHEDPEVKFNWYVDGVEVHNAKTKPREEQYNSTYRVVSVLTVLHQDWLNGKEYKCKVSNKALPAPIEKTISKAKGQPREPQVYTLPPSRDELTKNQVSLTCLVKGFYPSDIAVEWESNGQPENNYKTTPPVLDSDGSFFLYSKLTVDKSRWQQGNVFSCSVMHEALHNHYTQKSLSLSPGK
T12 sequence (chain, as listed by the source): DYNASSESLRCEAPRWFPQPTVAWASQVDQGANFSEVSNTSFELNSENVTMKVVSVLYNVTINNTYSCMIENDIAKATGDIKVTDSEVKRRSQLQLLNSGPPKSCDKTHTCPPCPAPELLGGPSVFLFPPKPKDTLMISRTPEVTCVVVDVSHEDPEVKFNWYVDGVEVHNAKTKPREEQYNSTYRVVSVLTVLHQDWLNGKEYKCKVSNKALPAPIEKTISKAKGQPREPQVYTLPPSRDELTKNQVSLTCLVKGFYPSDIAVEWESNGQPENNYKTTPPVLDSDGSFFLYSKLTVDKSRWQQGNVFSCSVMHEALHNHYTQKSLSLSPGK
T11 sequence (chain, as listed by the source): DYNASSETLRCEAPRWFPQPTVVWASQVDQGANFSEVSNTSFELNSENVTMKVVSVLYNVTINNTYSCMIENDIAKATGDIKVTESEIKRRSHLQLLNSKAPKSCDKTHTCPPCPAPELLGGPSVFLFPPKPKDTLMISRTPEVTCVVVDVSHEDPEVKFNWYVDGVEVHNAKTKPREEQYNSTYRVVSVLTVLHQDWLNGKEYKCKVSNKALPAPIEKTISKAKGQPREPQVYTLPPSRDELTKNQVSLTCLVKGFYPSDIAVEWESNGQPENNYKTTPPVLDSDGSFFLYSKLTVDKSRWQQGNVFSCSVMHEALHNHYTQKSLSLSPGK

Kd [1] [nM] | Kd [2] [nM] | binding result [3] | EC50 (read off the curve) [4] [nM] | binding result [5] | binding result [6] | binding result [7] | binding result [8] | binding result [9] | Kd [10] [nM] | EC50 [11] [nM] | Kd [12] [nM] | Kd [13] [nM] | EC50 [14] [nM] | EC50 [15] [nM] | EC50 [16] [nM] | EC50 (read off the curve) [19] [nM] | EC50 (read off the curve) [20] [nM] | Binder | binding result [17] | binding result [18]
2.89 | 4.13 | no binding | ~0.07 | no binding (tested: 20 nM) | no binding | no binding (tested: 20 nM) | no binding (tested: 20 nM) | no binding |  |  |  |  |  |  |  |  |  | 4B9/4B9 (antibody, human IgG1, V domains shown) VH: QVQLVQSGAEVKKPGASVKVSCKASGYTFTSYYMHWVRQAPGQGLEWMGWMNPNSGNTGYAQKFQGRVTMTRDTSTSTVYMELSSLRSEDTAVYYCARGQGRYLNYYYMDVWGKGTTVTVSS VL: DIQMTQSPSSLSASVGDRVTITCRVSQGISNYLAWYQQKPGKAPKLLIYDASSLQSGVPSRFSGSGSGTDFTLTISSLQPEDFATYYCQQSYSTPFTFGPGTKVDIK |  | 
0.926 |  |  |  |  |  |  |  |  | 1.53 | 0.08 | 1.05 | 13 | 0.136 | 4.17 | 6.73 | ~0.3 | ~0.2 | 39A11/39A11 (antibody, human IgG1, V domains shown) VH: EVQLLESGGGLVQPGGSLRLSCAASGFTFSSYGMHWVRQAPGKGLEWVASISSSSGYIYYADSVKGRFTISRDNSKNTLYLQMNSLRAEDTAVYYCARASSGMDVWGQGTTVTVSS VL: DIQMTQSPSSLSASVGDRVTITCRASQTIRSYLNWYQQKPGKAPKLLIYAASHLQSGVPSRFSGSGSGTDFTLTISSLQPEDFATYYCQQSYTTPYTFGQGTKLEIK | no binding (tested: axis value -8 (labelled log nM)) | no binding (tested: axis value -8 (labelled log nM))
